Source: US20030199671A1 (published 2003)
Each block holds one binder with its values, some of them ahead of it. fluorescein = fluorescein label attached at the ε-amino group of the C-terminal lysine

How the values were obtained:
[1] = molecular target: T1, human IgG1 (human, UniProt P01857-1 1-330 = IgG part); test: batch binding, immobilised ligand
T1 construct: Calbiochem; human plasma IgG1 in anisotropy studies, myeloma-derived (cat. 400120) in batch/column studies; also called hIgG1
Experimental: (§1) IgG targets were diluted into 10 mM phosphate buffer containing 150 mM NaCl and 0.01% Tween 20, pH 7.2 (PBST) or 50 mM Tris buffer containing, 150 mM NaCl and 0.01% Tween-20, pH 7.5 (TBST). Batch (static) binding and elution studies were conducted in a 96-well assay filterplate (Millipore MultiScreen-HV, with 0.45 μm Durapore membrane, product no. MAHVN4510). The target was allowed to incubate with the resin for 1-1.5 hours with shaking at room temperature. Unbound target was collected by centrifugation of samples from the assay plate directly into a low-UV absorbing 96-well collection plate (Costar, product no. 3635 or Greiner, product no. 655801). The unbound target was then quantitated by reading the absorbance at 280 nm (normalized to 1 cm pathlength, 1.4 mg/ml A280 extinction coefficient) of the collection plate on a microplate spectrophotometer (Molecular Devices Corp., SPECTRAmax PLUS) against a buffer blank.
(§2) The percentage bound target was determined by subtracting the mass determined as unbound from the corresponding condition's control values (control non-filtered added directly to the collection plate and/or the negative control). The assay plate was washed (3×) with 200 μl of binding buffer by vacuum filtration followed by addition of 100 μl of various elution conditions (e.g.: 0.1 M sodium bicarbonate buffer, pH 8.5 and/or 0.1 M sodium citrate buffer, pH 4.0). After a 30-60 minute incubation with shaking at room temperature, the eluted target was collected by centrifugation of the assay plate into another collection plate and quantitated in a similar manner. Percent elution of total load was then determined to characterize elution recovery efficiency under various conditions.

[2] = molecular target: T2, human IgG2 (human, UniProt P01859-1 1-326 = IgG part); test: batch binding, immobilised ligand
T2 construct: Calbiochem; plasma IgG2 in anisotropy studies, myeloma-derived (cat. 400122) in batch/column studies; also called hIgG2
Experimental: as §1, §2

[3] = molecular target: T3, human IgG3 (human, UniProt P01860-1 1-377); test: batch binding, immobilised ligand
T3 construct: Calbiochem; plasma IgG3 in anisotropy studies, myeloma-derived (cat. 400124) in batch/column studies; also called hIgG3
Experimental: as §1, §2

[4] = molecular target: T4, human IgG4 (human, UniProt P01861-1 1-327 = IgG part); test: batch binding, immobilised ligand
T4 construct: Calbiochem; plasma IgG4 in anisotropy studies, myeloma-derived (cat. 400126) in batch/column studies; also called hIgG4
Experimental: as §1, §2

[5] = molecular target: T1, human IgG1; test: fluorescence anisotropy; pH 7.4 PBS
Experimental: (§3) All measurements were performed in 384 well microplates with 20 nM fluorescein-labeled peptide and various concentrations of the IgG isoform in a volume of between 10 and 20 μl using a Tecan Polarion fluorescence polarization plate reader. All binding buffers included 0.01% (v/v) Tween 20 to prevent peptide adsorption to the microplate. The binding mixture was equilibrated for 10 minutes in the microplate at 30° C. prior to performing the measurement.

[6] = molecular target: T2, human IgG2; test: fluorescence anisotropy; pH 7.4 PBS
Experimental: as §3

[7] = molecular target: T3, human IgG3; test: fluorescence anisotropy; pH 7.4 PBS
Experimental: as §3

[8] = molecular target: T1, human IgG1; test: fluorescence anisotropy; pH 7.4, 0.01 M Tris-HCl
Experimental: as §3

[9] = molecular target: T2, human IgG2; test: fluorescence anisotropy; pH 7.4, 0.01 M Tris-HCl
Experimental: as §3

[10] = molecular target: T3, human IgG3; test: fluorescence anisotropy; pH 7.4, 0.01 M Tris-HCl
Experimental: as §3

[11] = molecular target: T4, human IgG4; test: fluorescence anisotropy; pH 7.4, 0.01 M Tris-HCl
Experimental: as §3

[12] = molecular target: T1, human IgG1; test: fluorescence anisotropy; pH 5.7, 0.01 M Tris-acetate
Experimental: as §3

[13] = molecular target: T3, human IgG3; test: as above
Experimental: as §3

[14] = molecular target: T5, Human IgG Fc fragment isolated from plasma (human); test: fluorescence anisotropy; pH 8.0, 0.05 M Tris-HCl, 0.2 M NaCl
T5 construct: domain: Fc fragment; also called human Fc; Fc protein
Experimental: as §3

[15] = molecular target: T1, human IgG1; test: fluorescence anisotropy; pH 7.4 PBS (second value, unlabelled row)
Experimental: as §3

[16] = molecular target: T2, human IgG2; test: as above
Experimental: as §3

[17] = molecular target: T3, human IgG3; test: fluorescence anisotropy; PBS
Experimental: (§4) Peptides were synthesized, fluorescein-labeled and HPLC purified as described above. Binding studies were performed using either a mixture of human plasma IgG isoforms (the Fc protein) or the individual human plasma IgG isoforms: IgG1, IgG2, IgG3, or IgG4.
(§5) Measurements were performed in 384-well microplates with 2 nM fluorescein-labeled peptide and a varied concentration of the IgG isoform target in a volume of 10 μl using a Tecan Polarion fluorescence polarization plate reader. The Fc binding buffer was 50 mM Tris-HCl, 200 mM NaCl, pH 8.0, 0.01% Tween 20. The IgG binding buffer was PBS with 0.01% Tween 20. The binding mixtures were equilibrated for 10 minutes in the microplate at 30° C. prior to performing the measurements.

[18] = molecular target: T1, human IgG1; test: fluorescence anisotropy; PBS
Experimental: as §4, §5

[19] = molecular target: T2, human IgG2; test: fluorescence anisotropy; PBS
Experimental: as §4, §5

[20] = molecular target: T4, human IgG4; test: fluorescence anisotropy; PBS
Experimental: as §4, §5

[21] = molecular target: T5, Human IgG Fc fragment isolated from …; test: fluorescence anisotropy; 50 mM Tris-HCl, 200 mM NaCl, pH 8.0
Experimental: as §4, §5

[22] = molecular target: T1, human IgG1; test: fluorescence anisotropy; pH 9.3, 0.2 M NaCl
Experimental: as §3

[23] = molecular target: T1, human IgG1; test: fluorescence anisotropy; pH 9.3, 0.01 M sodium bicarbonate
[24] = molecular target: T2, human IgG2; test: as above

T3 sequence (P01860 other isoform, or with tags, fused parts or gaps): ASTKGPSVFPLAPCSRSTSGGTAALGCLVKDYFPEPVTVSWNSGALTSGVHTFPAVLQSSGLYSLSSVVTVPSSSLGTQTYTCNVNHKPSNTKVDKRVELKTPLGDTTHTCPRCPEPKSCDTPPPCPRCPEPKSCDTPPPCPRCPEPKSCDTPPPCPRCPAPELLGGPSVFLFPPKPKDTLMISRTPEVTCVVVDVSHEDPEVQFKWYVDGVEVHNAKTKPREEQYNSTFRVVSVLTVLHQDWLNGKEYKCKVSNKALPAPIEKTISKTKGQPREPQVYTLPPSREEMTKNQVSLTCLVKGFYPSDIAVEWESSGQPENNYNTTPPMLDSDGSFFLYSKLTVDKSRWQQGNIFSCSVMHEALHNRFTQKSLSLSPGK
T2 sequence (P01859 other isoform, or with tags, fused parts or gaps): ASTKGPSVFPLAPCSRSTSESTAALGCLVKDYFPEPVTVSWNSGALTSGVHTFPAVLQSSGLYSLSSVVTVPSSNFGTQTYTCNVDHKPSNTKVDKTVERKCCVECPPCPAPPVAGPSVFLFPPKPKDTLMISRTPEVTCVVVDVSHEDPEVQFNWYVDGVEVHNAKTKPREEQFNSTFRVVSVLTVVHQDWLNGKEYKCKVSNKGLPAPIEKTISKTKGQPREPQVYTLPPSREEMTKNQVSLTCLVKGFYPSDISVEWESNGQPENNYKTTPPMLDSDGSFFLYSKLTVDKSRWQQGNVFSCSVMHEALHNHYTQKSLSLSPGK
T1 sequence (P01857 other isoform, or with tags, fused parts or gaps): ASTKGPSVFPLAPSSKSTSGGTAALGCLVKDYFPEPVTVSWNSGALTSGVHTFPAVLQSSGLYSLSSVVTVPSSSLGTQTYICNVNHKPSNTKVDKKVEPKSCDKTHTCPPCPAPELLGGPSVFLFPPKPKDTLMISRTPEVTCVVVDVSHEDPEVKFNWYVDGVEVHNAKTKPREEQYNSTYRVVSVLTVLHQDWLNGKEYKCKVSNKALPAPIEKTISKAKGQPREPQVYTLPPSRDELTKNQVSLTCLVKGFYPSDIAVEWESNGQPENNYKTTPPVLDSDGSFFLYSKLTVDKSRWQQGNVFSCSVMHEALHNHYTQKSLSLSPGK
T4 sequence (P01861 other isoform, or with tags, fused parts or gaps): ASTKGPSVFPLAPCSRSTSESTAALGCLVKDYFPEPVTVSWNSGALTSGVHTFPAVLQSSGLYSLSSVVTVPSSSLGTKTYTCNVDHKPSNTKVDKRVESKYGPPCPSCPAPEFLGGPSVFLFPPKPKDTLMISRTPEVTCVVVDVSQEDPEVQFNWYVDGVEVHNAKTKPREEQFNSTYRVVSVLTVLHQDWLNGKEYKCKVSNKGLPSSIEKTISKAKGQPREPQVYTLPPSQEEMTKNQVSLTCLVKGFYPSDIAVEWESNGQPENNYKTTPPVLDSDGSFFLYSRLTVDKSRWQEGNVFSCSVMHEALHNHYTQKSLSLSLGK

B1: DX252 (peptide)
peptide: Ac-GDDDHCYWFREWFNSECPHGEPGPEGGGK-NH2
modifications: not fully specified (bridges); printed as Ac-GDDDHCYWFREWFNSECPHGEPGPEGGGK-NH2; cysteine pairing not given here; also: fluorescein-labelled form in anisotropy assays, place not given here
notes: Fluorescein-labelled in anisotropy assays; immobilised in batch/column assays
bdg % (of Total Load) [1]: 37% | bdg % (of Total Load) [2]: 37% | bdg % (of Total Load) [3]: 44% | bdg % (of Total Load) [4]: 14% | Kd [5]: 1.9 µM | Kd [6]: 3.6 µM | Kd [7]: 2.7 µM | Kd [8]: 2.1 µM | Kd [9]: 3.4 µM | Kd [10]: 2.3 µM | Kd [11]: 3.2 µM | Kd [12]: 0.1 µM | Kd [13]: 0.06 µM | Kd [14]: 5.1 µM | Kd [15]: 2.9 µM | Kd [16]: 3 µM

B4: DX254 (peptide)
peptide: Ac-AGYYWCNYWGLCPDQGTPGPEGGGK-NH2
modifications: not fully specified (bridges); printed as Ac-AGYYWCNYWGLCPDQGTPGPEGGGK-NH2; cysteine pairing not given here; also: fluorescein-labelled form in anisotropy assays, place not given here
notes: Fluorescein-labelled in anisotropy assays; immobilised in batch assays
Kd [5]: 0.14 µM | Kd [6]: 1.1 µM | Kd [7]: 3 µM | Kd [22]: 0.6 µM | Kd [9]: 2 µM | Kd [11]: 2.9 µM | Kd [12]: 0.09 µM | Kd [13]: 0.3 µM | Kd [23]: 0.4 µM | Kd [24]: 2 µM | Kd [14]: 1.6 µM | Kd [15]: 0.4 µM

Next, values leading:

Kd [17]: 4.1 µM
B2: DX300 (peptide)
peptide: Ac-AGKYWCSFWGLQCKTGTPGPEGGGK(fluorescein)-NH2
modifications: not fully specified (bridges); printed as Ac-AGKYWCSFWGLQCKTGTPGPEGGGK-NH2; cysteine pairing not given here
notes: also called fluoresceinated DX250

Kd [18]: 3.6 µM | Kd [19]: 2.3 µM | Kd [20]: 9.7 µM | Kd [21]: 6.8 µM
B3: DX301 (peptide)
peptide: Ac-GDRRACSRDWSGALVWCAGHEPGPEGGGK(fluorescein)-NH2
modifications: not fully specified (bridges); printed as Ac-GDRRACSRDWSGALVWCAGHEPGPEGGGK-NH2; cysteine pairing not given here
notes: also called fluoresceinated DX253
